# Columns and labels:
# [1] = target: Heimdallarchaeota AB125 Vps22 (HeimAB125_14050) (Heimdallarchaeota AB125); assay: cross-linking; Vps22 15 µM in 20 mM HEPES-NaOH pH 7.5, 150 mM NaCl; 16 mM EDC with 16 mM Sulfo-NHS (1 h) or 2 mM BS3 (2 h) on ice; SDS-PAGE
# [2] = target: Heimdallarchaeota AB125 Vps22 (HeimAB125_14050) (Heimdallarchaeota AB125); assay: SEC-MALS; Heimdallarchaeotal Vps22 alone, loaded at 2.0 and 0.5 mg/ml; Superdex 200 increase 10/300; 20 mM Tris-HCl pH 8.0, 200 mM NaCl, 0.5 ml/min
# [3] = target: Odinarchaeota (Ca. Odinarchaeum yellowstonii LCB_4) Vps23 (TSG101) (Ca. Odinarchaeum yellowstonii LCB_4); assay: SEC-MALS; Odinarchaeota proteins; 100 µl at 2 mg/ml; Superdex 200 10/300 Increase GL; 20 mM Tris pH 8.0, 300 mM NaCl, 0.4 ml/min
substance,measurement,setting,value
Heimdallarchaeota AB125 Vps22 (HeimAB125_14050) (natural protein),stoichiometry N,[1],2
same,stoichiometry N,[2],2
Odinarchaeota (Ca. Odinarchaeum yellowstonii LCB_4) Vps23 (TSG101) (natural protein),stoichiometry N,[3],2
Odinarchaeota (Ca. Odinarchaeum yellowstonii LCB_4) Vps28 (natural protein),stoichiometry N (Vps28 per Vps23 dimer),[3],1

# — PMC9192718
